Test results from the nanobody polyreactivity screen of Harvey et al. (2022).

Assay: yeast display, Sf9 membrane polyspecificity reagent, FACS + sequencing; frameworks hold sequencing errors
How it was run: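 Galactose-induced (36–48 hours) yeast carrying a synthetic nanobody display library were exposed to 10% biotinylated, detergent-solubilized Sf9 membrane reagent at 4 °C for 1 hour. FACS followed streptavidin microbead enrichment, using low and high (top ~1%) gates for expression (anti-HA) and reagent binding (streptavidin). Colony PCR, MiSeq 2 × 250 sequencing and CDR-length filtering followed. Labels for polyreactivity reflect the gate of origin.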

Sequence	polyreactivity (PSR sort gate)
QVQLVESGGGLVQAGGSLRLSCAASGSTFDANAMGWYRQAPGKERELVAAISRSGGNTYYPDSVKGRFTISRDNAKNTVYLELNSLKPEDTAVYYCAADFRNAYYDRLDYWGQGTQVTVSS	low polyreactivity
QVQLVESGGGLVQAGGSLRLSCAASGSTFDAYAMGWYRQAPGKERELVAAITWSGGSTYYADSVKGRFTISRDNAKNTVYLEMNSLKPEDTAVYYCAADKLGELDYWGQGTQVTVSS	low polyreactivity
QVQLVESGGGLVQAGGSLRLSCAASGSTFDDYAMGWYRQAPGKERELVAAISRSDGSTSYADSVKGRFTISRDNAKNTVYLQMNSLKPEDTAVYYCAADPVFKDDLWPVRVRVDYWGQGTQVTVSS	low polyreactivity
QVQLVESGGGLVQAGGSLRLSCAASGSTFDFYAMGWYRQAPGKERELVAAITSGGTTNYADSVKGRFTISRDNAKNTVYLQINSLKPEDTAVYYCNAYYLGWYRVRAVTGYYYWGQGTQVTVSS	low polyreactivity
QVQLVESGGGLVQAGGSLRLSCAASGSTFDFYPMGWYRQAPGKERELVAAIRIGGNPNYADSVKGRLTISRDNAKNTVYLQLNSLKPEDTAVYYCARDDTYDTPLSPYDYWGQGTQVTVSS	low polyreactivity
QVQLVESGGGLVQAGGSLRLSCAASGSTFDGNAMGWYRPAPGKVRELVAAITRAGRTSYADSVKGRFTISRDNAKNTVYLQMNSLKPEDTAVYYCAKGGYDYWGQGTQVTVSS	low polyreactivity
QVQLVESGGGLVQAGGSLRLSCAASGSTFDGNAMGWYRQAPGKERELVAAISYSGGRTYYADSVKGRFTISRDNAKNTVYLQMNSLKPEDTAVYYCATVRPKYSASSYLAYSIFRYGYWGQGTQVTVSS	high polyreactivity
QVQLVESGGGLVQAGGSLRLSCAASGSTFDGNVMGWYRQAPGKERELVADIDSGGSTNYADSVKGRFTISRDNAKNTVYLQMNSLKPEDTAVYYCKAEWDDSFIRWFRYRGNYWGQGTQVTVSS	low polyreactivity
QVQLVESGGGLVQAGGSLRLSCAASGSTFDHYAMGWYRQAPGKERELVAAITRSGGSTYYADSVKGRFTISRDNAKNTVYLQMNSLKPEDTAVYYCNARRWITSDYWGQGTQVTVSS	high polyreactivity
QVQLVESGGGLVQAGGSLRLSCAASGSTFDIYAMGWYRQAHGKERELVAVISGGEGSTYYADSVKGRFTISRDNAKNTVYLQMNSLKPEDTAVYYCAADYISPGYWDGEYDCWGQGTQVTVSS	low polyreactivity
QVQLVESGGGLVQAGGSLRLSCAASGSTFDIYAMGWYRQAPGKERELVAAIRGRGGSTYYADSVKGRFTISRDNAKNTVYFQMNSLKPEDTAVYYCAADSYATRYYYWGQGTQVTVSS	high polyreactivity
QVQLVESGGGLVQAGGSLRLSCAASGSTFDIYAMGWYRQAPGKEREMVAAIDFSGGSTYYADSVKGRFTISRDNAKNTVYLQMNSLKPEDTAVYYCAADVQKHFYSFGDERGFPFDYWGQATQVTVSS	low polyreactivity
QVQLVESGGGLVQAGGSLRLSCAASGSTFDKYAMGWYRQAPGKERELVATISQSGASTYYADSVKGRFTISRDNAKNTVYFQMNSLKPEDTAVYYCAAAGGEQTKDYYYWGQGTQVTVSS	high polyreactivity
QVQLVESGGGLVQAGGSLRLSCAASGSTFDKYVMGWYRQAPGKERELVAVIDWRDGTTYYADSVKGRFTISRDNAKNTVYLQMNSLKPEDTAVYYCNADNDNYGDVYPYYTAGYGYWGQGTQVTVSS	low polyreactivity
QVQLVESGGGLVQAGGSLRLSCAASGSTFDLNAMGWYRQAPGKERELVARITSSTGRTFYADSVKGRFTISRDNAKNTVYLQMNSLKPEDTAVYYCAKDHASYSYWPSVLPYDHWGQGTQVTVSS	low polyreactivity
QVQLVESGGGLVQAGGSLRLSCAASGSTFDNNAMGWYRQAPGKERELVAAISWGGGSTYYADSVKGRFTISRDNAKNTVYLQMNSLKPEDTAVYYCAKLKGTQPNRYDYWGQGTQVTVSS	low polyreactivity

Sequence	polyreactivity (PSR sort gate)
QVQLVESGGGLVQAGGSLRLSCAASGSTFDNYAMGWYRQAPGKERELVATITSGGSITNYADSVKGRFTISRDNAKNTVYLQMYSLKPEDTAVYYCAKRRYFYYRGDYWGQGTQVTVSS	high polyreactivity
QVQLVESGGGLVQAGGSLRLSCAASGSTFDPNALGWYRQAPGKERELVAAISYTGGRTYYADSVKGRFTISRDNAKNTVYLQMNSLKPEDTAVYYCAVLVVGSTTQDEPYFSGVEHDYWGQGTQVTVSS	low polyreactivity
QVQLVESGGGLVQAGGSLRLSCAASGSTFDPNAMGWYRQAPGKERELVAAITSGGSTYYADSVKGRFTISRDNAKNTVYLQMNSLKPEDTAVYYCNAPLEWGVYAAQNWDDGYWGQGTQVTVSS	low polyreactivity
QVQLVESGGGLVQAGGSLRLSCAASGSTFDPNAMGWYRQARGKERELVAAISYTGGRTYYADSVKGRFTISRDNAKNTVYLQMNSLKPEDTAVYYCAVLVVGSTTQDEPYFSGVEHDYWGQGTQVTVSS	low polyreactivity
QVQLVESGGGLVQAGGSLRLSCAASGSTFDPYAMGWYRQAPGKEREFVAAISGSGGSTYYADSVKGRFTISRDNAKNTVYLQMNSLKPEDTAVYYCAKDSFPWVDDDYWGQGTQVTVSS	low polyreactivity
QVQLVESGGGLVQAGGSLRLSCAASGSTFDPYAMGWYRQAPGKEREFVADIDSSVGSTFYADSVKGRFTISRDNAKNTVYLQMNSLKPEDTAVYYCAAVYESYYYEYYYWGQGTQVTVSS	high polyreactivity
QVQLVESGGGLVQAGGSLRLSCAASGSTFDPYAMGWYRQAPGKERELVAAITSGGGTKYADSVKGRFTISRDNAKNTVYLQMNSLKPEDTAVYYCAADYFDSSYQPTDSILYEYWGQGTQVTVSS	low polyreactivity
QVQLVESGGGLVQAGGSLRLSCAASGSTFDPYGMGWYRQAPGKERELVAAITSSGRTNYADSVKGRFTISRDNAKNTVYLQMNSLKPEDTAVYYCATRKERYFYRGYEYWGQGTQVTVSS	low polyreactivity
QVQLVESGGGLVQAGGSLRLSCAASGSTFDQYALGRYRQAPGKERELVADITSSDGSTYYADSVKGRFTISRDIAKNTVYLQMNSLKPEDTAVYYCNADYRYIWTYWGWSIYDYWGQGTQVTVSS	high polyreactivity
QVQLVESGGGLVQAGGSLRLSCAASGSTFDRNAMGWYRKAPGKERELVAAISKRSGSTYYADSVKGRFTISRDNAKNTVYLQMNSLKPEDTAVYYCAADRISYRGMGSWGQGTQVTVSS	high polyreactivity
QVQLVESGGGLVQAGGSLRLSCAASGSTFDRYAMGWYRQAPGKERELVAAISHSGGRTYYADSVKGRFTISRDNAKNTVYLQMNSLKPEDTAVYYCAAKSRSGTEAAYGYWGQGTQVTVSS	low polyreactivity
QVQLVESGGGLVQAGGSLRLSCAASGSTFDRYAMGWYRQAPGKERELVAAISWSAGRTYYADSVKGRFTISRDNAKNTVYLQMNSLKPEDTAVNYCAADQIVSGTYDYYWGQGTQVTVAS	low polyreactivity
QVQLVESGGGLVQAGGSLRLSCAASGSTFDRYAMGWYRQAPRKERELVAANSWSAGRTDYADSVKGRFTISRDNAKNTVYLQMNSLKPEDTAVYYCAADYWYRTFYGYFGYDYWGQGTQVTVSS	low polyreactivity
QVQLVESGGGLVQAGGSLRLSCAASGSTFDSYAMGWYRQAPGKERELVAAITRSDASTYYADSVKGRFTISRDNAKNTVYLQMNSLKPEDTAVYYCDADTSLVYYGGDWEYYYWGQGTQVTVSS	low polyreactivity
QVQLVESGGGLVQAGGSLRLSCAASGSTFDSYGMGWYRQAPGKERELVASISSRGGSTYYADSVKGRFTLSRDNAKNTVYFQMNSLKPEDTAVYYCAAKGPRRWGSGFDYWGQGTQVTVSS	low polyreactivity
